Measured values as given in the Human Domainome abundance scans (Beltran et al. 2025).
± gives the uncertainty stated by the source.

B1: TOX high mobility group box family member 3, residues 256 to 323; numbered along this chain, O15405 (parent)
chain: QKPVSAYALFFRDTQAAIKGQNPNATFGEVSKIVASMWDSLGEEQKQVYKRKTEAAKKEYLKALAAYR

Variants of: B1
Assay: abundance fitness (aPCA) (normalised: wild type 0, dead -1); higher = more abundant; growth selection in yeast, the domain comes from the species named
Settings: Homo sapiens

Row | Variant | abundance fitness
1 | QKPVSAYALFFRDTQAAIKGQNPNATFGEVSKIVASMWDSLGEEQKQVYARKTEAAKKEYLKALAAYR [K50A] | -0.15 ± 0.24
2 | QKPVSAYALFFRDTQAAIKGQNPNATFGEVSKIVASMWDSVGEEQKQVYKRKTEAAKKEYLKALAAYR [L41V] | -0.29 ± 0.086
3 | QKPVSAYALFFRDTQAAIKGQNPNATFGEVSKIVASMWDSWGEEQKQVYKRKTEAAKKEYLKALAAYR [L41W] | -1.05 ± 0.14
4 | QKPVSAYALFFRDTQAAIKGQNPNATFGEVSKIVASMWDQLGEEQKQVYKRKTEAAKKEYLKALAAYR [S40Q] | 0.003 ± 0.069
5 | QKPWSAYALFFRDTQAAIKGQNPNATFGEVSKIVASMWDSLGEEQKQVYKRKTEAAKKEYLKALAAYR [V4W] | -0.331 ± 0.063
6 | QKPTSAYALFFRDTQAAIKGQNPNATFGEVSKIVASMWDSLGEEQKQVYKRKTEAAKKEYLKALAAYR [V4T] | -0.073 ± 0.079
7 | QKPCSAYALFFRDTQAAIKGQNPNATFGEVSKIVASMWDSLGEEQKQVYKRKTEAAKKEYLKALAAYR [V4C] | -0.097 ± 0.051
8 | QKPVSAYALFFRDTQAAIKGCNPNATFGEVSKIVASMWDSLGEEQKQVYKRKTEAAKKEYLKALAAYR [Q21C] | -0.256 ± 0.13
9 | QKPVSAYALFFRDTQAAIKGINPNATFGEVSKIVASMWDSLGEEQKQVYKRKTEAAKKEYLKALAAYR [Q21I] | -0.346 ± 0.084
10 | QKPVSAYALFFRDTQAAIKGGNPNATFGEVSKIVASMWDSLGEEQKQVYKRKTEAAKKEYLKALAAYR [Q21G] | -0.289 ± 0.057
11 | QKPVSAYALFFRDTQAAIKGQNPNATFGEVSKIVASMWDSLGCEQKQVYKRKTEAAKKEYLKALAAYR [E43C] | -0.165 ± 0.1
12 | QKPVSVYALFFRDTQAAIKGQNPNATFGEVSKIVASMWDSLGEEQKQVYKRKTEAAKKEYLKALAAYR [A6V] | -0.601 ± 0.084
13 | QKPVSSYALFFRDTQAAIKGQNPNATFGEVSKIVASMWDSLGEEQKQVYKRKTEAAKKEYLKALAAYR [A6S] | -0.075 ± 0.092
14 | QKPVSEYALFFRDTQAAIKGQNPNATFGEVSKIVASMWDSLGEEQKQVYKRKTEAAKKEYLKALAAYR [A6E] | 0.156 ± 0.16
15 | QKPVSAYALFFRDTQAAQKGQNPNATFGEVSKIVASMWDSLGEEQKQVYKRKTEAAKKEYLKALAAYR [I18Q] | -0.833 ± 0.21
16 | QKPVSAYALFFRDTQAAIKGQNPNATFGEVSKIVATMWDSLGEEQKQVYKRKTEAAKKEYLKALAAYR [S36T] | 0.067 ± 0.067
17 | QKPVSAYALFFRDTQAAIKGQNPNATFGEVSKIVAAMWDSLGEEQKQVYKRKTEAAKKEYLKALAAYR [S36A] | 0.005 ± 0.036
18 | QKPVSAYALFFRDTQAAIKGQNPNATFGEVSKIVASMWDSLGEEQKQVYKRKTEAAKKEYLKARAAYR [L64R] | 0.088 ± 0.054
19 | QKPVSAYALIFRDTQAAIKGQNPNATFGEVSKIVASMWDSLGEEQKQVYKRKTEAAKKEYLKALAAYR [F10I] | -0.98 ± 0.34
20 | QKPVSAYALAFRDTQAAIKGQNPNATFGEVSKIVASMWDSLGEEQKQVYKRKTEAAKKEYLKALAAYR [F10A] | -0.981 ± 0.31

Row | Variant | abundance fitness
21 | QKPVSAYALFFRDTQAAIKGQNPNATFGWVSKIVASMWDSLGEEQKQVYKRKTEAAKKEYLKALAAYR [E29W] | -0.158 ± 0.17
22 | QKPVSAYALFFRDTQAAIKGQNPNATFGCVSKIVASMWDSLGEEQKQVYKRKTEAAKKEYLKALAAYR [E29C] | -0.643 ± 0.1
23 | QGPVSAYALFFRDTQAAIKGQNPNATFGEVSKIVASMWDSLGEEQKQVYKRKTEAAKKEYLKALAAYR [K2G] | -0.344 ± 0.05
24 | QAPVSAYALFFRDTQAAIKGQNPNATFGEVSKIVASMWDSLGEEQKQVYKRKTEAAKKEYLKALAAYR [K2A] | -0.264 ± 0.076
25 | QKPVSAYALFFRDTQAAIKGQNPNATFGEVSKIVASMWDSLGEEQKQVYKRKTEAAKKESLKALAAYR [Y60S] | 0.039 ± 0.057
26 | QKPVSAYALFFRDTQAAIKGQNPNATFGEVSKIVASMWDSLGEEQKQVYKRKTEAAKKEALKALAAYR [Y60A] | 0.043 ± 0.059
27 | QKPVSAYALFFRDTQAAIKGQNPNATFGEVSKDVASMWDSLGEEQKQVYKRKTEAAKKEYLKALAAYR [I33D] | -0.771 ± 0.18
28 | QKPVSAYALFFRDTQAAILGQNPNATFGEVSKIVASMWDSLGEEQKQVYKRKTEAAKKEYLKALAAYR [K19L] | -0.166 ± 0.05
29 | QKPVSAYALFFRDTQAAIKGQNPNATFGEVSKIVASMWDSLREEQKQVYKRKTEAAKKEYLKALAAYR [G42R] | -0.275 ± 0.052
30 | QKPVSAYAKFFRDTQAAIKGQNPNATFGEVSKIVASMWDSLGEEQKQVYKRKTEAAKKEYLKALAAYR [L9K] | -0.425 ± 0.13
31 | QKPVSAYALFFRDTQAAIKGQNPNATFGEVSKIVASMWDSLGEEQKQVYKRYTEAAKKEYLKALAAYR [K52Y] | -0.28 ± 0.073
32 | QKPVSAYALFFRDTQAAIKGQNPNATFGEVSKIVASMWDSLGEEQKQVYKRRTEAAKKEYLKALAAYR [K52R] | 0.008 ± 0.042
33 | QKPVSAYALFFRDTQAAIKGQNPNATFGEVSKIVASMWDSLGEEQKQVYKRSTEAAKKEYLKALAAYR [K52S] | -0.145 ± 0.04
34 | QKPVSAYALFFRDTQAAIKGQNPNATFGEVSKIVASMWDSLGEEQKQVYKRKTEAAKKEYLKALADYR [A66D] | 0.509 ± 0.12
35 | QKPVSAYALFFRDTQAAIKGQNPNATFGEVSKIVASMWDSLGEEQKQVYKRKTEAAKKEYLKALAYYR [A66Y] | -0.111 ± 0.12
36 | QKPVSAYALFFRDTQAAIKGQNPNATFGEVSKIVASMWDSLGEEQKQVYKRKTEAAKKEYLKALAQYR [A66Q] | 0.093 ± 0.06
37 | FKPVSAYALFFRDTQAAIKGQNPNATFGEVSKIVASMWDSLGEEQKQVYKRKTEAAKKEYLKALAAYR [Q1F] | -0.088 ± 0.13
38 | NKPVSAYALFFRDTQAAIKGQNPNATFGEVSKIVASMWDSLGEEQKQVYKRKTEAAKKEYLKALAAYR [Q1N] | 0.271 ± 0.15
39 | QKPVSAYALFFRDTQAAIKGQNPNATFGEVSKIVASMWDSLGEEQKQVYKRKTIAAKKEYLKALAAYR [E54I] | -0.012 ± 0.082
40 | QKPVSAYALFFRDTQAAIKGQNPNATFGEVSKIVASMWDSLGEEQKQVYKHKTEAAKKEYLKALAAYR [R51H] | -0.018 ± 0.054
